Laboratory results as given in patent publication US20120039806A1 (BURNET INSTITUTE, published 2012).

Legend:
[1] = biological target: T1, GST protein (control, plasmid control) (UniProt P08515 1-218 = GST); assay: pull-down on glutathione beads, anti-FLAG Western blot
T1 construct: also called GST alone; GST control
Protocol: (§1) Glutathione Sepharose resin coupled with either GST or GST-RNF41 proteins was resuspended in the binding buffer (0.2% NP-40 and 2% glycerol in 20 mM Tris-buffered saline, pH 7.5 containing complete protease inhibitor cocktail mixture (Roche) and 1 mM PMSF) and mixed with 1 μg/m purified FLAG-tagged soluble Clec9A (also in binding buffer) and incubated at 4° C. on a rotating wheel for 2 hours. The beads were washed extensively with the binding buffer to remove unbound proteins. Bound proteins were eluted from the beads by the addition of 2×SDS reducing sample and heated at 92° C. for 5 minutes. The eluted proteins were separated by SDS-PAGE followed by Western blot with anti-FLAG antibody.
(§2) The inventors subcloned and expressed full length RNF41 (RNF41FL), and RNF41 transcript variant 2 (RNF41₇₂₋₃₁₇) as GST-RNF41 fusion proteins in bacterial cells. The fusion proteins were immobilized onto glutathione beads, and incubated with mClec9A-ecto or with the control mClec12A-ecto. mClec9A-ecto directly bound to both GST-RNF41FL and GST-RNF41₇₂₋₃₁₇, but not to GST alone (FIG. 13). […] This confirmed that mClec9A binds specifically to RNF41.

[2] = biological target: T2, membrane bound mouse 5B6 on transiently transfected 293T cells (full length untagged m5B6, pIRES-Neo) (mouse); assay: flow cytometry on transiently transfected live 293T cells, soluble FLAG-tagged protein
T2 construct: also called mouse Clec9A
T2 chain: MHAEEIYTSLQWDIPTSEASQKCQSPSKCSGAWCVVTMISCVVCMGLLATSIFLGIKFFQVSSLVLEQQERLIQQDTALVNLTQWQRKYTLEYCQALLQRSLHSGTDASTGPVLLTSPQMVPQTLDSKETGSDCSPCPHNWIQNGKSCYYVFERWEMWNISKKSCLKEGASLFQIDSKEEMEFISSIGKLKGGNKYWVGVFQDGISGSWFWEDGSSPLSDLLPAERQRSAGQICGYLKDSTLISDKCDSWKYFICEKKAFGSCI
From the text: (§3) Two-three days later, cells were harvested and surface immunofluorescence labeled using either (1) soluble FLAG-tagged biotinylated m5B6, h5B6 and Cire, and detected with Streptavidin PE, or (2) soluble FLAG-tagged 5B6, biotinylated anti-FLAG mAb 9H10, and Streptavidin-PE. Live cells were gated on forward and side scatter, or by propidium iodide exclusion and analysed for their surface binding of soluble 5B6.

[3] = biological target: T3, membrane bound human 5B6 on transiently transfected 293T cells (full length untagged h5B6, pIRES-Neo) (human, UniProt Q6UXN8 1-241); assay: as above
T3 construct: also called human CLEC9A
T3 sequence (Q6UXN8 whole entry): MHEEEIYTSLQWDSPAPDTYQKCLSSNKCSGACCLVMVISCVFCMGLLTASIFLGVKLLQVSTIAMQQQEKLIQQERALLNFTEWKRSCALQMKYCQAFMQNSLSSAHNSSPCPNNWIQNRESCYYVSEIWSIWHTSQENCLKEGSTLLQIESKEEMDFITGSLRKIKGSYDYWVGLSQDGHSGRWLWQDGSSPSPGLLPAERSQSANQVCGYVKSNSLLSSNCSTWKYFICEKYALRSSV
From the text: as §3

[4] = biological target: T4, GST-RNF41FL (full length RNF41 as glutathione S-transferase fusion protein) (human, UniProt Q5R7T5 1-317 (Pongo abelii entry)); assay: pull-down on glutathione beads, anti-FLAG Western blot
T4 construct: Expressed in BL21 (DE3) E. coli, solubilised with Sarcosyl and immobilised on Glutathione-Sepharose 4B; also called GST-RNF41 fusion protein; not shown: glutathione S-transferase (GST) of a modified pGEX-2T vector (GE Healthcare)
T4 sequence: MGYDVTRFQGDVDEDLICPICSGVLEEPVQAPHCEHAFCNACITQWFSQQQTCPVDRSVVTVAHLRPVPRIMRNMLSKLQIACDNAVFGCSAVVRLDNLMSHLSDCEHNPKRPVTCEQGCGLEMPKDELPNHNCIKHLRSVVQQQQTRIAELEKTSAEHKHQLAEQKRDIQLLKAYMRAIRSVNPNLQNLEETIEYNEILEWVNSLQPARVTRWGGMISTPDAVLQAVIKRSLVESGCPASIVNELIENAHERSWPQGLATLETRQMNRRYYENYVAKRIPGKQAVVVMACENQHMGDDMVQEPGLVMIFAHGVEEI
Protocol: as §1, §2

[5] = biological target: T5, GST-RNF41 72-317 (RNF41 transcript variant 2 as glutathione S-transferase fusion protein) (human, UniProt Q5R7T5 72-317 (Pongo abelii entry), N-terminal GST fusion, immobilised on Glutathione-Sepharose beads; carrier not in the letters); assay: as above
T5 construct: Expressed in BL21 (DE3) E. coli and immobilised on Glutathione-Sepharose 4B; not shown: GST carrier (glutathione S-transferase of the modified pGEX-2T vector) and any linker at the N end
T5 sequence: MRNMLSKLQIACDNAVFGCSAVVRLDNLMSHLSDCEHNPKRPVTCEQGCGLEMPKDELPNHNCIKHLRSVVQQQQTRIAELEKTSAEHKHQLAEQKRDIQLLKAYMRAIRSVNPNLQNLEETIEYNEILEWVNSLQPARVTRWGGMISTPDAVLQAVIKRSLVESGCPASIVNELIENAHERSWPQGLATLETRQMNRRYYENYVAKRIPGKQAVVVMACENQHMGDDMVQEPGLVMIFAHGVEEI
Protocol: as §1, §2

[6] = biological target: T6, Spectrin (purified from human erythrocytes, Sigma, #S3644) (human, UniProt P02549 1-2419; P11277 2-2137); assay: ELISA, spectrin coated, biotinylated soluble protein, SA-HRP
T6 construct: mature; A bought native preparation; also called purified spectrin
T6 sequence (P02549 whole entry, chain 1 of 2): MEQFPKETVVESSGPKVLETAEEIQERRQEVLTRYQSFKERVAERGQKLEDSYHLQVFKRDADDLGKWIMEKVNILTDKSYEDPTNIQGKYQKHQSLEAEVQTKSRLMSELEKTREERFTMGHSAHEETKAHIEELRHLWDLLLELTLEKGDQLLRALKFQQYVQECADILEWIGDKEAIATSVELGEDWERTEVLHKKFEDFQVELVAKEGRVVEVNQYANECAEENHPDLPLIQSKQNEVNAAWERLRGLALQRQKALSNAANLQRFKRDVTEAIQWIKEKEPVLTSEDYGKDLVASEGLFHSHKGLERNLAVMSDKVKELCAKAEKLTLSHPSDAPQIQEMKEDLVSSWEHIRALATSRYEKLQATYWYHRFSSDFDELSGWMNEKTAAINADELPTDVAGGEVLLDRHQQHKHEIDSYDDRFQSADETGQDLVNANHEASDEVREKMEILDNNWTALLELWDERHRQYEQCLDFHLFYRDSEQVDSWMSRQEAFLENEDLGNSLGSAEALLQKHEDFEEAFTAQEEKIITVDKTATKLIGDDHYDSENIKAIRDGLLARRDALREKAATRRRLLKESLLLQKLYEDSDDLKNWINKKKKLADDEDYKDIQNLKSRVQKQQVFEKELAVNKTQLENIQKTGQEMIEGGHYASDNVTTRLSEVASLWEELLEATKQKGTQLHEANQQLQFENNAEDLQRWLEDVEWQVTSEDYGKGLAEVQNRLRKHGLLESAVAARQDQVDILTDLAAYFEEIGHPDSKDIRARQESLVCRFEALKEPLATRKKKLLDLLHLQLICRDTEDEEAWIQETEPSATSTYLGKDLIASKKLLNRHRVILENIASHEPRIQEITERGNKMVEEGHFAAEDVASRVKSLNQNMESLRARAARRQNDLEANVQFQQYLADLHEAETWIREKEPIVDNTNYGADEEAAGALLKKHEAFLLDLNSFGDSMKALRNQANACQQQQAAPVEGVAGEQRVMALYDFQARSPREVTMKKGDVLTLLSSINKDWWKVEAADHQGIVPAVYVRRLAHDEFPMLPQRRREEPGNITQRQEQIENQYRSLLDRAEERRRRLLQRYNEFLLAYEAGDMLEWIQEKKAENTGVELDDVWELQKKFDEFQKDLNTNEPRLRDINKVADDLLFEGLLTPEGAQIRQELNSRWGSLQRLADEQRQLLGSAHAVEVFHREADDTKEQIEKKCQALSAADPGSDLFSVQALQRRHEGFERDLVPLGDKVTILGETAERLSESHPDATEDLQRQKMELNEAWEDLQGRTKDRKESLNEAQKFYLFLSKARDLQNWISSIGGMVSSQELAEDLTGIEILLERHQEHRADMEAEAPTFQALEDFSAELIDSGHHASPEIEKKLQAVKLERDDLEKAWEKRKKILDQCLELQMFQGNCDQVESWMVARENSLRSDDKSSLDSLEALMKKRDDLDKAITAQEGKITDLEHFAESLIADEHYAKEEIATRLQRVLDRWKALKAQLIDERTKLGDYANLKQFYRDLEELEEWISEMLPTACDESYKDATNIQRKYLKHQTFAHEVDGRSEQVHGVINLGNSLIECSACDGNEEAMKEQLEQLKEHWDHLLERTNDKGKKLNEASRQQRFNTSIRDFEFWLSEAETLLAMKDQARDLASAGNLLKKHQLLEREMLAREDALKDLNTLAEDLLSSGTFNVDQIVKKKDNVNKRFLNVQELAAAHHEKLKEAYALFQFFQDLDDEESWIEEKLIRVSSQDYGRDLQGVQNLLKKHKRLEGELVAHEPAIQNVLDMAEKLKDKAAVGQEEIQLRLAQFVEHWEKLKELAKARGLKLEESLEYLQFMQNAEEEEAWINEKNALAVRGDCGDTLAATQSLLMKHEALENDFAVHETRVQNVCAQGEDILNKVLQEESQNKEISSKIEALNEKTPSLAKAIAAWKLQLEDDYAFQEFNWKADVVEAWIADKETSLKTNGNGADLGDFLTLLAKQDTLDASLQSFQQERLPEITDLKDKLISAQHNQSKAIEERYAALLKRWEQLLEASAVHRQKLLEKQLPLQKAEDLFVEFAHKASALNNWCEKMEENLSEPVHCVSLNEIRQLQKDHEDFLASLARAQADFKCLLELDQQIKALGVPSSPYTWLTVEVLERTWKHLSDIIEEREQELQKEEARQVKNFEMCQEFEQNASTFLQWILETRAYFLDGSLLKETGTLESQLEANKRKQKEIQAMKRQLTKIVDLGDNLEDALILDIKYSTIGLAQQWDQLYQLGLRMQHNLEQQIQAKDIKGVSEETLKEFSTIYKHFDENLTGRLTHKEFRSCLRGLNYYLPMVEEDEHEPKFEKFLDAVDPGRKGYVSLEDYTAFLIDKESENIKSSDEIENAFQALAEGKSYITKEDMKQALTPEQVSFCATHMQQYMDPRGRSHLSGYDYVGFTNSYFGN
T6 sequence (P11277 2-2137, chain 2 of 2): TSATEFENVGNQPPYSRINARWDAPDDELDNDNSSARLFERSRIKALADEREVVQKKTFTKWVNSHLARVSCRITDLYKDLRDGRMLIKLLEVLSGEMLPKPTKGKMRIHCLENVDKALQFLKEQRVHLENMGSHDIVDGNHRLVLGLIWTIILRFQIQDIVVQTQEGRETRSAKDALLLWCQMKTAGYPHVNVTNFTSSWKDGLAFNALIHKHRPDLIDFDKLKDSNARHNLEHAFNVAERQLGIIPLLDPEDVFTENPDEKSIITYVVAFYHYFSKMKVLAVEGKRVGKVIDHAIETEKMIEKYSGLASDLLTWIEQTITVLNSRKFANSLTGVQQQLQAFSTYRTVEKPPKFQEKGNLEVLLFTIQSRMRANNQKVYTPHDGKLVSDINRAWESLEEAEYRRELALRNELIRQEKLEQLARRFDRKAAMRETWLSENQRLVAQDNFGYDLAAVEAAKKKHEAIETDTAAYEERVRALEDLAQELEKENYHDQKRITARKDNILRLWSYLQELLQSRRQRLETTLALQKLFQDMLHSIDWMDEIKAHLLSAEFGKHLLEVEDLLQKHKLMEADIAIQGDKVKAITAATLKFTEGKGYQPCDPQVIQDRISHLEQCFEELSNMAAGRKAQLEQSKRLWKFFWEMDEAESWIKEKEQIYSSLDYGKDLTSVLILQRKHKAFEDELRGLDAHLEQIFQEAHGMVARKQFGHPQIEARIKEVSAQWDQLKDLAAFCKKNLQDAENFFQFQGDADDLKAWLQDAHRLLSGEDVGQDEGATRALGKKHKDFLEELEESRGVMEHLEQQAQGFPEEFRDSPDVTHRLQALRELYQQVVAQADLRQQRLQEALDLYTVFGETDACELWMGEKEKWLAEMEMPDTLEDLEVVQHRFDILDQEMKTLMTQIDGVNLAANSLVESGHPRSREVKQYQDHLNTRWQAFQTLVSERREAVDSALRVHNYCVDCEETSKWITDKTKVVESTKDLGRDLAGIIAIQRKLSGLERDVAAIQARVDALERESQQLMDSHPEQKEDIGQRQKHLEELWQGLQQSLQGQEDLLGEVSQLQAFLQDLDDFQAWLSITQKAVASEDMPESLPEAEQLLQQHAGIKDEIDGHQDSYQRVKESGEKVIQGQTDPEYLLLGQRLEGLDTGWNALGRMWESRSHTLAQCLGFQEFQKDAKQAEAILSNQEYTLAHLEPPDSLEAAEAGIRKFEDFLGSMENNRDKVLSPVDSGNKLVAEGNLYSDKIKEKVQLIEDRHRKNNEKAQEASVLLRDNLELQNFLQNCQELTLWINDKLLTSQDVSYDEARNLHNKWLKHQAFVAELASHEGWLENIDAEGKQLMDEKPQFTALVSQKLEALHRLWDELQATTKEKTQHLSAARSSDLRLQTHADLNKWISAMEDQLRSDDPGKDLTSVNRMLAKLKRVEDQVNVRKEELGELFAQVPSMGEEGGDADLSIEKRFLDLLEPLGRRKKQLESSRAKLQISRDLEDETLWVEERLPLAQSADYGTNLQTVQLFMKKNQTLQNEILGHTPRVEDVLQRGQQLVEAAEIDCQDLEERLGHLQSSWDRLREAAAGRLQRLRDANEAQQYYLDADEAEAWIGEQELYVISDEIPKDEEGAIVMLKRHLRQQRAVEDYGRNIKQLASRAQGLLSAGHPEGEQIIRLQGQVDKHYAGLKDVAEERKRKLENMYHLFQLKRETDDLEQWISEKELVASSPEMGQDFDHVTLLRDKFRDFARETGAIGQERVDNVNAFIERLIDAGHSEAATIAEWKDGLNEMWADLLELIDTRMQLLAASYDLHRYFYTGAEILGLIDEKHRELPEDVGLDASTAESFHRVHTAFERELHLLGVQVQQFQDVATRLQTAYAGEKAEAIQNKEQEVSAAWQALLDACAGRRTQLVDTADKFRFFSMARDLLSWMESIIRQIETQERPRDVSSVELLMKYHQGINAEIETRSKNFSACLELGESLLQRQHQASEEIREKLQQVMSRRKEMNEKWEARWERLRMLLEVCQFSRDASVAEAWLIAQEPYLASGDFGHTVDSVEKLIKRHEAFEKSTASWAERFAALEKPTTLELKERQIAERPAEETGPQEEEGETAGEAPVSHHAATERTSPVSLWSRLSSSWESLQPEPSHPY
Protocol: ELISA plates (Costar, Broadway, Cambridge, UK) were coated overnight at 4° C. with […] of Spectrin (purified from human erythrocytes, Sigma, #S3644) or Actin (Sigma). Unbound proteins were washed away (PBS, 0.05% Tween-20), and the ELISA plates blocked with PBS, 1% BSA. Serially diluted biotinylated purified mClec9A-ecto, mClec9A-CTLD and Cire soluble proteins were plated (PBS, 1% BSA) and incubated at 4° C. overnight. Bound soluble proteins were detected using Streptavidin-HRP and visualised using ABTS.

[7] = biological target: T7, RNF41 isoform encoded by RNF41 transcript variant 2 (Accession number NM-194358), GST-tagged, on the … (human, UniProt Q5R7T5 72-317 (Pongo abelii entry)); assay: human protein microarray (ProtoArray v4.1), biotinylated probe, Streptavidin-Alexa Fluor647
T7 construct: A bought array (Invitrogen); also called isoforms of RNF41; not shown: GST tag of the array protein
T7 sequence: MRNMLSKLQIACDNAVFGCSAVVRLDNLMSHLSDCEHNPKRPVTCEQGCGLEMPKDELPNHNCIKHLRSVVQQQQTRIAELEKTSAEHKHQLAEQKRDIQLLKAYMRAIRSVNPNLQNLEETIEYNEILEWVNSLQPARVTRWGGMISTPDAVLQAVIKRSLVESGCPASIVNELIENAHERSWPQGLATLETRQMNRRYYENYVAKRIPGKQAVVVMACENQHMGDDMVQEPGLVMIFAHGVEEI
Protocol: Biotinylated purified soluble mClec9A-ecto and Cire (control) were diluted to 50 μg/ml in Casein Washing Buffer (Invitrogen) and hybridised to Human protein microarrays using the “ProtoArray Human Protein Microarray v4.1 Protein-Protein Interaction (PPI) kit for biotinylated proteins” (Invitrogen, #PAH05241011) as per manufacturer's instructions. Binding of the biotinylated proteins was detected using Streptavidin-Alexa Fluor647, and images acquired using a fluorescence microarray scanner (GenePix4000B scanner, Axon Instruments). Positive interactions were identified using the ProtoArray Prospector software (Invitrogen).

B1: mClec9A-ecto (tagged soluble ectodomain mouse Clec9A; stalk and CTLD) (receptor)
chain: ASISARQNSGLHHILDAQKMVWNHRGARQDYKDDDDKTREQQERLIQQDTALVNLTQWQRKYTLEYCQALLQRSLHSGTDASTGPVLLTSPQMVPQTLDSKETGSDCSPCPHNWIQNGKSCYYVFERWEMWNISKKSCLKEGASLFQIDSKEEMEFISSIGKLKGGNKYWVGVFQDGISGSWFWEDGSSPLSDLLPAERQRSAGQICGYLKDSTLISDKCDSWKYFICEKKAFGSCI
modifications: enzymatically biotinylated with BirA at the biotinylation consensus sequence where the filing says 'biotinylated' (ELISA, protein microarray); unbiotinylated FLAG-tagged protein in the pull-down and in FIG. 6
notes: also called soluble FLAG-tagged m5B6; soluble mouse 5B6
binding result [1]: no binding (tested: 1 µg/m)
binding result [2]: binds
binding result [3]: binds

B2: hCLEC9A-ecto (tagged soluble ectodomain human Clec9A; stalk and CTLD) (receptor)
chain: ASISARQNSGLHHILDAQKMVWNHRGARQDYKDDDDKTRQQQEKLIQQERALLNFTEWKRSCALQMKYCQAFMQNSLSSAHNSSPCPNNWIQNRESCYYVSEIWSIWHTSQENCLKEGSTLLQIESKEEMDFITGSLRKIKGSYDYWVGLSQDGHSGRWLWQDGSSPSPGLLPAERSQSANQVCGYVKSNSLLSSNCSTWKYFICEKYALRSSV
notes: also called soluble FLAG-tagged h5B6; soluble human 5B6
binding result [2]: binds
binding result [3]: binds

B3: mClec12A-ecto (soluble FLAG-tagged mouse Clec12A, control) (receptor, not shown: small tags and cut ends)
chain (part 1 of 2): NSGLHHILDAQKMVWNHR
chain (part 2 of 2): YTTLATEMIKSNQLQRAKEELQENVFLQLKHNLNSSKKIKNLSAMLQSTATQLCRELYSKEPEHKCKPCPKGSEWYKDSCYSQLNQYGTWQESVMACSARNASLLKVKNKDVLEFIKYKKLRYFWLALLPRKDRTQYPLSEKMFLSEESERSTDDIDKKYCGYIDRVNVYYTYCTDENNIICEETASKVQLESVLNGLPEDSR
notes: extracellular domain; Control lectin
binding result [4]: no binding (tested: 1 µg/m)
binding result [5]: no binding (tested: 1 µg/m)

B4: Cire-ecto (soluble FLAG-tagged C-type lectin Cire, control) (receptor, mouse, not shown: small tags and cut ends)
chain (part 1 of 2): NSGLHHILDAQKMVWNHR
chain (part 2 of 2): VKVYKIPSSQEENNQMNVYQELTQLKAGVDRLCRSCPWDWTHFQGSCYFFSVAQKSWNDSATACHNVGAQLVVIKSDEEQNFLQQTSKKRGYTWMGLIDMSKESTWYWVDGSPLTLSFMKYWSKGEPNNLGEEDCAEFRDDGWNDTKCTNKKFWICKKLSTSCPSK
modifications: biotinylated with BirA where the filing says 'biotinylated' (ELISA, microarray)
notes: extracellular domain; Control lectin; The construct is described only as similar to the Clec9A constructs; also called mouse Cire/mDCSign; biotinylated Cire-ecto
binding result [6]: no binding
binding result [7]: no binding (tested: 50 µg/ml)
